{"source": "patent US20020076719A1", "about": "(ROCKEFELLER UNIVERSITY, published 2002)", "key": {"untagged mTRF2": {"target": "T1, untagged mTRF2 (mouse, UniProt O35144 46-541, limits assumed)", "T1 construct": "In vitro translated and 35S-methionine labelled; also called mouse TRF2", "T1 sequence": "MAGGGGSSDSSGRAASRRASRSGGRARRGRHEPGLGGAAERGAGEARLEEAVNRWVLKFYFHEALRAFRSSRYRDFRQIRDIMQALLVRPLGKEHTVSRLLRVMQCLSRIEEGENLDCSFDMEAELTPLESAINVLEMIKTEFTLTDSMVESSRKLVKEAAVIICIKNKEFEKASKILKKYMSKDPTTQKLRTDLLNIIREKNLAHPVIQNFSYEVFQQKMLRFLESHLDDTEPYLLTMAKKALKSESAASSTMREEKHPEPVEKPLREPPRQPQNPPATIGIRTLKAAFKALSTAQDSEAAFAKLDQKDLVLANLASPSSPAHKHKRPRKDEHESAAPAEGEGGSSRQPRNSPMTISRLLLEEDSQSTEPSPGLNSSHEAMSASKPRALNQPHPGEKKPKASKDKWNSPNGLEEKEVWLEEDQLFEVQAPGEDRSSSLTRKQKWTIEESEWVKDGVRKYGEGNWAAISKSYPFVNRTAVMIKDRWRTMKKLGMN", "assay": "co-immunoprecipitation of in vitro translated 35S-labelled proteins with M2 anti-FLAG antibody", "excerpt": "(§1) FIG. 12: TRF2 interacts with TRF2 but not with TRF1. […] Values represent an average of three to nine independent transformants. FIG. 12B depicts in vitro translated ³⁵S-methionine labelled TRF1 and TRF2 proteins with or without an N-terminal FLAG tag (indicated above the lanes) were immunoprecipitated using the M2 anti-FLAG antibodies and analyzed by autoradiography.\nCo-immunoprecipitation experiments. The human and mouse TRF1 constructs used were previously described [Chong et al., Science, 270:1663-1667 (1995); Broccoli et al., Hum. Mol. Genetics, 6:69-76 (1997); Bianchi et al., supra (1997)]. The FLAG-tagged mTRF2 and untagged mTRF2 were translated from cDNAs described above. ³⁵S-methionine labelled proteins [Chong et al., Science, 270:1663-1667 (1995); Broccoli et al., Hum. Mol. Genetics, 6:69-76 (1997); Bianchi et al., supra, (1997)] were immunoprecipitated using the M2 anti-FLAG antibody in buffer D (20 mM Hepes-KOH pH 7.9, 100 mM KCl, 20% glycerol, 0.2 mM EDTA, 0.2 mM EGTA, 0.1 % NP40, 0.1 % Triton-X-100, 0.5 mM DTT, 0.5 mM PMSF) followed by four washes in buffer D with detergents and two washes in buffer D without detergent. Pellets were suspended in SDS/PAGE loading buffer and resolved on a 9% SDS-polyacrylamide gel."}, "FLAG-tagged mTRF2ΔN-49": {"target": "T2, FLAG-tagged mTRF2ΔN-49 (mouse, UniProt O35144 94-541)", "T2 construct": "also called mTRF2 DN-49; deletion mutant mTRF2ΔN-49", "T2 sequence": "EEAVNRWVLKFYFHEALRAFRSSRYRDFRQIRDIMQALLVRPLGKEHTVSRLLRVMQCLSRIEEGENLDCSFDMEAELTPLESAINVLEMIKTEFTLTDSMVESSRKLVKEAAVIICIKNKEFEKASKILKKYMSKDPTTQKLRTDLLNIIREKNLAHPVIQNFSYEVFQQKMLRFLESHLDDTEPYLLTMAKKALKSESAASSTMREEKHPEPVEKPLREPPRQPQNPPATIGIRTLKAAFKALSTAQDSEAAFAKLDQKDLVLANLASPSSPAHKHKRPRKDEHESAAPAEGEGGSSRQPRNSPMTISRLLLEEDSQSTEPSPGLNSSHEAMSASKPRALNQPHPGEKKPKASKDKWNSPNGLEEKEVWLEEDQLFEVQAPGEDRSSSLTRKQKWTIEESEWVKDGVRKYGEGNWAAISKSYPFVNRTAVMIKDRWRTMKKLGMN", "assay": "gel-shift assay on extracts of transfected HeLa cells; level of the hTRF1 homodimer complex unaltered", "excerpt": "This new activity was present in excess over the endogenous hTRF1 activity and could be super-shifted with the FLAG antibody (FIG. 10B, lane 4). The mTRF2ΔN-49 mutant protein was also found to localize to telomeric loci in transfected cells (see below). […] Acids Res., 24:1294-303 (1996)].\nAbsence of heterodimer formation was further corroborated by co-immunoprecipitation of in vitro translation products (FIG. 12B). […] The lack of heterodimerization is also consistent with the gel-shift assays on extracts from cells over-expressing mTRF2ΔN-49 (FIG. 10B). […] In similar experiments executed with FLAG-tagged hTRF 1, heterodimerization between the endogenous TRF1 and the transfected protein is consistently detected."}, "[1]": {"target": "T3, hTRF2 dimerization domain (amino acid 45 to amino acid 246), LexA and GAD fusion proteins (human, UniProt Q15554 87-288)", "T3 construct": "Built both as a LexA and as a GAD fusion; also called dimerization domain of hTRF2; not shown: two-hybrid fusion partner, LexA or GAD depending on the construct (vectors pBTM116 and pACT2)", "T3 sequence": "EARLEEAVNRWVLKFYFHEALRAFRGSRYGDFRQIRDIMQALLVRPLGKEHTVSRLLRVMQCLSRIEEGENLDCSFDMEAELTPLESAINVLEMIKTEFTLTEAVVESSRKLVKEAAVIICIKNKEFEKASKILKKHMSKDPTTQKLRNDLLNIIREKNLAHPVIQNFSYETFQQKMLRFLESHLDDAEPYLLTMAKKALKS", "assay": "yeast 2-hybrid, b-galactosidase activity", "excerpt": "as §1\nNext the yeast 2-hybrid assay was used to determine whether the dimerization domains of TRF1 and TRF2 can interact. In a large number of trials, no convincing interactions between these proteins in two settings were detected (FIG. 12A). No activation occurred when the dimerization domain of TRF2 was probed for interactions with full length TRF1. In addition, no significant interactions were observed between fusion proteins containing the isolated TRF1 and TRF2 dimerization domains. The weak b-galactosidase activity detected with these proteins is probably due to the inherent slight transactivation activity of the TRF1 dimerization domain (FIG. 12A) which has been noted previously [Bianchi et al., supra, (1997)]."}}}
{"binder": "FLAG-mTRF1 (mouse TRF) (other, UniProt P70371 2-421, looked up, The co-IP construct is 'previously described'; also called FLAG tagged mouse TRF; not shown: FLAG tag) AETVSSAARDAPSREGWTDSDSPEQEEVGDDAELLQCQLQLGTPREMENAELVAEVEAVAAGWMLDFLCLSLCRAFRDGRSEDFRRTRDSAEAIIHGLHRLTAYQLKTVYICQFLTRVASGKALDAQFEVDERITPLESALMIWNSIEKEHDKLHDEIKNLIKIQAVAVCMEIGSFKEAEEVFERIFGDPEFYTPLERKLLKIISQKDVFHSLFQHFSYSCMMEKIQSYVGDVLSEKSSTFLMKAATKVVENEKARTQASKDRPDATNTGMDTEVGLNKEKSVNGQQSTETEPLVDTVSSIRSHKNALSQLKHRRAPSDFSRNEARTGTLQCETTMERNRRTSGRNRLCVSENQPDTDDKSGRRKRQTWLWEEDRILKCGVKKYGEGNWAKILSHYKFNNRTSVMLKDRWRTMKRLKLIS", "values": [{"measurement": "binding result", "setting": "untagged mTRF2", "value": "no binding"}]}
{"binder": "hTRF1 (endogenous, HeLa cells) (other, also called endogenous TRF1; human TRF1) AEDVSSAAPSPRRCADGRDADPTEEQMAETERNDEEQFECQELLECQVQVGAPEEEEEEEEDAGLVAEAEAVAAGWMLDFLCLSLCRAFRDGRSEDFRRTRNSAEAIIHGLSSLTACQLRTIYICQFLTRIAAGKTLDAQFENDERITPLESALMIWGSIEKEHDKLHEEIQNLIKIQAIAVCMENGNFKEAEEVFERIFGDPNSHMPFKSKLLMIISQKDTFHSFFQHFSYNHMMEKIKSYVNYVLSEKSSTFLMKAAAKVVESKRTRTITSQDKPSGNDVEMETEANLDTRKSVSDKQSAVTESSEGTVSLLRSHKNLFLSKLQHGTQQQDLNKKERRVGTPQSTKKKKESRRATESRIPVSKSQPVTPEKHRARKRQAWLWEEDKNLRSGVRKYGEGNWSKILLHYKFNNRTSVMLKDRWRTMKKLKLISSDSED", "values": [{"measurement": "binding result", "setting": "FLAG-tagged mTRF2ΔN-49", "value": "no binding"}]}
{"binder": "hTRF1 dimerization domain, LexA and GAD fusion proteins (other, also called isolated TRF1 dimerization domain; homodimerization domain of TRF1; not shown: two-hybrid fusion partner, LexA or GAD) LVAEAEAVAAGWMLDFLCLSLCRAFRDGRSEDFRRTRNSAEAIIHGLSSLTACQLRTIYICQFLTRIAAGKTLDAQFENDERITPLESALMIWGSIEKEHDKLHEEIQNLIKIQAIAVCMENGNFKEAEEVFERIFGDPNSHMPFKSKLLMIISQKDTFHSFFQHFSYNHMMEKIKSYVNYVLSEKSSTFLMKAAAKV", "values": [{"measurement": "binding result", "setting": "[1]", "value": "no binding"}]}
